Assay [1] has as its target Bax (single cysteine 126C, Alexa647-labeled, recombinant), Q07812. Put plainly: FRET. Conditions: chain shown with the change, 20 nM Alexa568-labeled BimL mutant (FRET donor), Alexa647-labeled Bax acceptor.
Assay [2] addresses Bcl-XL (single cysteine 152C, Alexa647-labeled, recombinant), Q07817-1. Description: FRET. Conditions: chain shown with the change, 20 nM Alexa568-labeled BimL mutant (FRET donor), Alexa647-labeled Bcl-XL acceptor.
Setting [3] is: membranes present (liposomes), apparent Kd, parent: 29±1.
[4] abbreviates: membranes present (liposomes), apparent Kd, parent: 1±1.

The text below walks through data of article PMC6980855.

Bounds are passed on as bounds.

Bax (single cysteine 126C, Alexa647-labeled, recombinant), Q07812, sequence (Q07812 whole entry): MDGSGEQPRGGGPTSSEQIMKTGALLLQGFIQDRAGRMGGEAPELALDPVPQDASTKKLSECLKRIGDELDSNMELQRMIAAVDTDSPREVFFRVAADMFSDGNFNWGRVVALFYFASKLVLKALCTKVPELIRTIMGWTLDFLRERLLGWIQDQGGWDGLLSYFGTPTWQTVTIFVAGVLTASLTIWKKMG
Bcl-XL (single cysteine 152C, Alexa647-labeled, recombinant), Q07817-1, sequence (Q07817 whole entry): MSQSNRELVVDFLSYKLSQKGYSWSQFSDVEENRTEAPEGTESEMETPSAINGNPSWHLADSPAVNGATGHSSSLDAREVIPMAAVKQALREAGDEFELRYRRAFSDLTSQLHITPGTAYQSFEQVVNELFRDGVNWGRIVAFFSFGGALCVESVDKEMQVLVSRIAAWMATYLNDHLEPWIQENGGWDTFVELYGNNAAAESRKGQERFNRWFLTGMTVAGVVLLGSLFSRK

B1: BimL (single cysteine Q41C, Alexa568-labeled, recombinant) I90E; L94E; I97E; F101E (protein)
chain: MHHHHHHGGSGGTGGSENLYFQGTMAKQPSDVSSECDREGGQLQPAERPPQLRPGAPTSLQTEPCDRSPAPMSCDKSTQTPSPPCQAFNHYLSAMASIRQSQEEPEDLRPEIREAQEERREGDEENETYTRRVFANDYREAEDHPQMVILQLLRFIFRLVWRRH
For B1, the Kd in assay [1] (in solution, parent: 59±7) is over 1000 nM; in assay [1] (setting [3]), over 1000 nM; in assay [2] (in solution, parent: 8±0.4), over 1000 nM; in assay [2] (setting [4]), over 1000 nM.

B2: BimL (single cysteine Q41C, Alexa568-labeled, recombinant) R130A; R134A (protein)
chain: MHHHHHHGGSGGTGGSENLYFQGTMAKQPSDVSSECDREGGQLQPAERPPQLRPGAPTSLQTEPCDRSPAPMSCDKSTQTPSPPCQAFNHYLSAMASIRQSQEEPEDLRPEIRIAQELRRIGDEFNETYTRRVFANDYREAEDHPQMVILQLLAFIFALVWRRH
Regarding B2, the Kd was 64 nM in assay [1] (setting [3]) and 20 nM in assay [2] (setting [4]).

B3: BimL (single cysteine Q41C, Alexa568-labeled, recombinant) L129E (protein)
chain: MHHHHHHGGSGGTGGSENLYFQGTMAKQPSDVSSECDREGGQLQPAERPPQLRPGAPTSLQTEPCDRSPAPMSCDKSTQTPSPPCQAFNHYLSAMASIRQSQEEPEDLRPEIRIAQELRRIGDEFNETYTRRVFANDYREAEDHPQMVILQLERFIFRLVWRRH
For the molecule B3, the Kd in assay [2] (setting [4]) amounted to 5 nM.

B4: BimL (single cysteine Q41C, Alexa568-labeled, recombinant) I132E (protein)
chain: MHHHHHHGGSGGTGGSENLYFQGTMAKQPSDVSSECDREGGQLQPAERPPQLRPGAPTSLQTEPCDRSPAPMSCDKSTQTPSPPCQAFNHYLSAMASIRQSQEEPEDLRPEIRIAQELRRIGDEFNETYTRRVFANDYREAEDHPQMVILQLLRFEFRLVWRRH
Consider B4, for which the Kd was found to be 10 nM in assay [2] (in solution, parent: 8±0.4) and 2 nM in assay [2] (setting [4]).

B5: BimL (single cysteine Q41C, Alexa568-labeled, recombinant) V124E (protein)
chain: MHHHHHHGGSGGTGGSENLYFQGTMAKQPSDVSSECDREGGQLQPAERPPQLRPGAPTSLQTEPCDRSPAPMSCDKSTQTPSPPCQAFNHYLSAMASIRQSQEEPEDLRPEIRIAQELRRIGDEFNETYTRRVFANDYREAEDHPQMEILQLLRFIFRLVWRRH
In the case of B5, the Kd in assay [1] (setting [3]) was 95 nM; in assay [2] (setting [4]), 2 nM.
